According to the RNAGym collection of RNA variant scans (doi:10.1101/gr.219683.116):

B1: mRNA-splicing (parent)
chain: AGUUGCUGCUGGGAGCUCCAGCACAGUGAAAUGGACAGAAGGGCAGAGCAA

Variants of: B1
Assay: exon inclusion enrichment index; higher = more inclusion; WT1 exon 5 minigene, HEK293

Variant | exon inclusion enrichment index
AGUUACCGGCGGGAGCUCCAGCACAGUGAAAUGGACAGAAGGGCAGAGCAA | 2.65
AGUUACCACCGGGAGCUCCGGCACAGUGAAAUGGACAGAAGGGCAGAGCAA | 2.79
AGUUACCACCGGGAGCUCCUGCACAGUGAAAUGGACAGAAGGGCAGAGCAA | 2.38
AGUUACCACCGGGAGCUCCCGCACAGUGAAAUGGACAGAAGGGCAGAGCAA | 1.81
AGUUACCACAGGGAGCUCCAGCACAGUGAAAUGGACAGAAGGGCAGAGCAA | 0.253
AGUUACCACCGGGAGCUCCAGCACAGUGAAAUGGACAGAAGGGCAGAGCAA | 2.53
AGUUACCACCGGGCCCUCCAGCACAGUGAAAUGGACAGAAGGGCAGAGCAA | 0.761
AGUUACCACCGGGCUCUCCAGCACAGUGAAAUGGACAGAAGGGCAGAGCAA | 1
AGUUACCACCGGGCACUCCAGCACAGUGAAAUGGACAGAAGGGCAGAGCAA | 0.731
AGUUACCACCGGGCGCUCCAGCACAGUGAAAUGGACAGAAGGGCAGAGCAA | 1.69
AGUUACCACCGGGUGCUCCAGCACAGUGAAAUGGACAGAAGGGCAGAGCAA | 0.895
AGUUACCACCGGGGGCUCCAGCACAGUGAAAUGGACAGAAGGGCAGAGCAA | 1.38
AGUUACCAGUGGGAGCUCCAGCACAGUGAAAUGGACAGAAGGGCAGAGCAA | 0.872
AGUUACCAUUGGGAGCUCCAGCACAGUGAAAUGGACAGAAGGGCAGAGCAA | 0.959
AGUUACCAAUGGGAGCUCCAGCACAGUGAAAUGGACAGAAGGGCAGAGCAA | 0.923
AGUUACCACAAGGAGCUCCAGCACAGUGAAAUGGACAGAAGGGCAGAGCAA | 1.07
AGUUACCACACGGAGCUCCAGCACAGUGAAAUGGACAGAAGGGCAGAGCAA | 1.63
AGUUACCACAUGGAGCUCCAGCACAGUGAAAUGGACAGAAGGGCAGAGCAA | 1.37
AGUUACCACCGGGAGCUCCAGCACAGUGAACGGGACAGAAGGGCAGAGCAA | 2.85
AGUUACCACCGGGAGCUCCAGCACAGUGAACAGGACAGAAGGGCAGAGCAA | 1.81
AGUUACCACCGGGAGCUCCAGCACAGUGAACCGGACAGAAGGGCAGAGCAA | 3.58
AGUUACCACCGGGAGCUCCAGCUAAGUGAAAUGGACAGAAGGGCAGAGCAA | 1.02
AGUUACCACCGGGAGCUCCAGCUUAGUGAAAUGGACAGAAGGGCAGAGCAA | 0.272
AGUUACCACCGGGAGCUCCAGCUGAGUGAAAUGGACAGAAGGGCAGAGCAA | 2.69
AGUUACCACCGGGAGCUCCAGCACAGUGCGAUGGACAGAAGGGCAGAGCAA | 3.21
AGUUACCACCGGGAGCUCCAGCACAGUGCUAUGGACAGAAGGGCAGAGCAA | 1.35

Variant | exon inclusion enrichment index
AGUUACCACCGGGAGCUCCAGCACAGUGCCAUGGACAGAAGGGCAGAGCAA | 2.73
AGUUACCACCGGGAGCUCCAGCACAGUGACAUGGACAGAAGGGCAGAGCAA | 2.51
AGUUACCACCGGGAGCUCCAGCACAGUGAGAUGGACAGAAGGGCAGAGCAA | 2.36
AGUUACCACCGGGAGCUCCAGCACAGUGAUAUGGACAGAAGGGCAGAGCAA | 1.71
AGUUACCACUUGGAGCUCCAGCACAGUGAAAUGGACAGAAGGGCAGAGCAA | 1.23
AGUUACCACUAGGAGCUCCAGCACAGUGAAAUGGACAGAAGGGCAGAGCAA | 0.186
AGUUACCACUCGGAGCUCCAGCACAGUGAAAUGGACAGAAGGGCAGAGCAA | 1.3
AGUUACCACCGGGAGCUCCAGCACAGUGAGCUGGACAGAAGGGCAGAGCAA | 0.305
AGUUACCACCGGGAGCUCCAGCACAGUGAGGUGGACAGAAGGGCAGAGCAA | 0.823
AGUUACCACCGGGAGCUCCAGCACAGUGAGUUGGACAGAAGGGCAGAGCAA | 0.691
AGUUACCACCGGGAGCUCCAGCACAGUGGUAUGGACAGAAGGGCAGAGCAA | 0.757
AGUUACCACCGGGAGCUCCAGCACAGUGGCAUGGACAGAAGGGCAGAGCAA | 1.32
AGUUACCACCGGGAGCUCCAGCACAGUGGGAUGGACAGAAGGGCAGAGCAA | 1.92
AGUUACCACCGGGAGCUCCGUCACAGUGAAAUGGACAGAAGGGCAGAGCAA | 2.6
AGUUACCACCGGGAGCUCCGACACAGUGAAAUGGACAGAAGGGCAGAGCAA | 2.82
AGUUACCACCGGGAGCUCCGCCACAGUGAAAUGGACAGAAGGGCAGAGCAA | 2.62
AGUUACCAGCGGGAGCUCCAGCACAGUGAAAUGGACAGAAGGGCAGAGCAA | 1.65
AGUUACCAGAGGGAGCUCCAGCACAGUGAAAUGGACAGAAGGGCAGAGCAA | 0.989
AGUUACCAGGGGGAGCUCCAGCACAGUGAAAUGGACAGAAGGGCAGAGCAA | 0.236
AGUUACCACCGGGAGCUCCAGCACAGUGUUAUGGACAGAAGGGCAGAGCAA | 0.907
AGUUACCACCGGGAGCUCCAGCACAGUGUGAUGGACAGAAGGGCAGAGCAA | 2.78
AGUUACCACCGGGAGCUCCAGCACAGUGUCAUGGACAGAAGGGCAGAGCAA | 1.98
AGUUACCACCGGGAGCUCCAGCACAGUGCAAUGGACAGAAGGGCAGAGCAA | 2.01
AGUUACCACCGGGAGCUCCAGCACAGUGGAAUGGACAGAAGGGCAGAGCAA | 3.4
AGUUACCACCGGGAGCUCCAGCACAGUGUAAUGGACAGAAGGGCAGAGCAA | 0.801
AGUUACCACCGGGAGCUCCAGCACCGUGAAAUGGACAGAAGGGCAGAGCAA | 4.03

Variant | exon inclusion enrichment index
AGUUACCACCGGGAGCUCCAGCACGGUGAAAUGGACAGAAGGGCAGAGCAA | 3.43
AGUUACCACCGGGAGCUCCAGCACUGUGAAAUGGACAGAAGGGCAGAGCAA | 2.57
AGUUACCACCGGGAGCUCCAGCGAAGUGAAAUGGACAGAAGGGCAGAGCAA | 3.5
AGUUACCACCGGGAGCUCCAGCGUAGUGAAAUGGACAGAAGGGCAGAGCAA | 0.823
AGUUACCACCGGGAGCUCCAGCGGAGUGAAAUGGACAGAAGGGCAGAGCAA | 3.83
AGUUACCACCGGGAGCUCCAGCACAGUGAAGAGGACAGAAGGGCAGAGCAA | 4.37
AGUUACCACCGGGAGCUCCAGCACAGUGAAGCGGACAGAAGGGCAGAGCAA | 4.44
AGUUACCACCGGGAGCUCCAGCACGUUGAAAUGGACAGAAGGGCAGAGCAA | 3.09
AGUUACCACCGGGAGCUCCAGCACGCUGAAAUGGACAGAAGGGCAGAGCAA | 3.84
AGUUACCACCGGGAGCUCCAGCACGAUGAAAUGGACAGAAGGGCAGAGCAA | 4.73
AGUUACCACCGGGAGCUCCCACACAGUGAAAUGGACAGAAGGGCAGAGCAA | 0.984
AGUUACCACCGGGAGCUCCCUCACAGUGAAAUGGACAGAAGGGCAGAGCAA | 1
AGUUACCACCGGGAGCUCCCCCACAGUGAAAUGGACAGAAGGGCAGAGCAA | 0.722
AGUUACCACCGGGAGCUCCAGCACAGUGAUCUGGACAGAAGGGCAGAGCAA | 2.13
AGUUACCACCGGGAGCUCCAGCACAGUGAUUUGGACAGAAGGGCAGAGCAA | 1.86
AGUUACCACCGGGAGCUCCAGCACAGUGAUGUGGACAGAAGGGCAGAGCAA | 2.36
AGUUACCACCGGGAGCUCCAGCACCCUGAAAUGGACAGAAGGGCAGAGCAA | 2.75
AGUUACCACCGGGAGCUCCAGCACCUUGAAAUGGACAGAAGGGCAGAGCAA | 2.86
AGUUACCACCGGGAGCUCCAGCACCAUGAAAUGGACAGAAGGGCAGAGCAA | 4.29
AGUUACCGUCGGGAGCUCCAGCACAGUGAAAUGGACAGAAGGGCAGAGCAA | 2.63
AGUUACCACUGGGAGCUCCAGCACAGUGAAAUGGACAGAAGGGCAGAGCAA | 1.09
AGUUACCACCGGGAGCUCCUUCACAGUGAAAUGGACAGAAGGGCAGAGCAA | 1.69
AGUUACCACCGGGAGCUCCUCCACAGUGAAAUGGACAGAAGGGCAGAGCAA | 2.33
AGUUACCACCGGGAGCUCCUACACAGUGAAAUGGACAGAAGGGCAGAGCAA | 1.36
AGUUACCACCGGGGCCUCCAGCACAGUGAAAUGGACAGAAGGGCAGAGCAA | 1.06
AGUUACCACCGGGGUCUCCAGCACAGUGAAAUGGACAGAAGGGCAGAGCAA | 0.925

Variant | exon inclusion enrichment index
AGUUACCACCGGGGACUCCAGCACAGUGAAAUGGACAGAAGGGCAGAGCAA | 1.8
AGUUACCACCGGGAGCUCCAGCGCAGUGAAAUGGACAGAAGGGCAGAGCAA | 3.56
AGUUACCACCGGGAGCUCCAGCUCAGUGAAAUGGACAGAAGGGCAGAGCAA | 1.81
AGUUACCACCGGGAGCUCCAGCCCAGUGAAAUGGACAGAAGGGCAGAGCAA | 1.89
AGUUACCACCGGGUCCUCCAGCACAGUGAAAUGGACAGAAGGGCAGAGCAA | 1.01
AGUUACCACCGGGUUCUCCAGCACAGUGAAAUGGACAGAAGGGCAGAGCAA | 0.953
AGUUACCACCGGGUACUCCAGCACAGUGAAAUGGACAGAAGGGCAGAGCAA | 0.514
AGUUACCACCGGGAGCUCCAGCACAGUGACCUGGACAGAAGGGCAGAGCAA | 3.14
AGUUACCACCGGGAGCUCCAGCACAGUGACUUGGACAGAAGGGCAGAGCAA | 2.21
AGUUACCACCGGGAGCUCCAGCACAGUGACGUGGACAGAAGGGCAGAGCAA | 3.4
AGUUACCACCGGGAGCUCCAGCACAGUGAAGUGGACAGAAGGGCAGAGCAA | 2.95
AGUUACCACCGGGAGCUCCAGCACAGUGAACUGGACAGAAGGGCAGAGCAA | 2.89
AGUUACCAUAGGGAGCUCCAGCACAGUGAAAUGGACAGAAGGGCAGAGCAA | 0.0302
AGUUACCAUGGGGAGCUCCAGCACAGUGAAAUGGACAGAAGGGCAGAGCAA | 0.887
AGUUACCAUCGGGAGCUCCAGCACAGUGAAAUGGACAGAAGGGCAGAGCAA | 2.24
AGUUACCACCGGGAGCUCCAGCACUAUGAAAUGGACAGAAGGGCAGAGCAA | 2.39
AGUUACCACCGGGAGCUCCAGCACUCUGAAAUGGACAGAAGGGCAGAGCAA | 2.25
AGUUACCACCGGGAGCUCCAGCACUUUGAAAUGGACAGAAGGGCAGAGCAA | 1.75
AGUUACCACCGGGAGCUCCAGCCGAGUGAAAUGGACAGAAGGGCAGAGCAA | 3.75
AGUUACCACCGGGAGCUCCAGCCAAGUGAAAUGGACAGAAGGGCAGAGCAA | 2.48
AGUUACCACCGGGAGCUCCAGCCUAGUGAAAUGGACAGAAGGGCAGAGCAA | 1.16
AGUUACCAAGGGGAGCUCCAGCACAGUGAAAUGGACAGAAGGGCAGAGCAA | 0.509
AGUUACCAACGGGAGCUCCAGCACAGUGAAAUGGACAGAAGGGCAGAGCAA | 2
AGUUACCAAAGGGAGCUCCAGCACAGUGAAAUGGACAGAAGGGCAGAGCAA | 0.384
